Test results from patent US20240245800A1, “HIGHLY SPECIFIC RABBIT SINGLE -DOMAIN ANTIBODIES FOR DRUG DELIVERY IN IMMUNOTHERAPY APPLICATIONS” (TECHNOPHAGE, INVESTIGAÇÃO E DESENVOLVIMENTO EM …, priority 2021, published 2024).

T1: Human Topoisomerase I (Homo sapiens, UniProt P11387)
T1 construct: purchased Topogen
T1 sequence (P11387 1-765): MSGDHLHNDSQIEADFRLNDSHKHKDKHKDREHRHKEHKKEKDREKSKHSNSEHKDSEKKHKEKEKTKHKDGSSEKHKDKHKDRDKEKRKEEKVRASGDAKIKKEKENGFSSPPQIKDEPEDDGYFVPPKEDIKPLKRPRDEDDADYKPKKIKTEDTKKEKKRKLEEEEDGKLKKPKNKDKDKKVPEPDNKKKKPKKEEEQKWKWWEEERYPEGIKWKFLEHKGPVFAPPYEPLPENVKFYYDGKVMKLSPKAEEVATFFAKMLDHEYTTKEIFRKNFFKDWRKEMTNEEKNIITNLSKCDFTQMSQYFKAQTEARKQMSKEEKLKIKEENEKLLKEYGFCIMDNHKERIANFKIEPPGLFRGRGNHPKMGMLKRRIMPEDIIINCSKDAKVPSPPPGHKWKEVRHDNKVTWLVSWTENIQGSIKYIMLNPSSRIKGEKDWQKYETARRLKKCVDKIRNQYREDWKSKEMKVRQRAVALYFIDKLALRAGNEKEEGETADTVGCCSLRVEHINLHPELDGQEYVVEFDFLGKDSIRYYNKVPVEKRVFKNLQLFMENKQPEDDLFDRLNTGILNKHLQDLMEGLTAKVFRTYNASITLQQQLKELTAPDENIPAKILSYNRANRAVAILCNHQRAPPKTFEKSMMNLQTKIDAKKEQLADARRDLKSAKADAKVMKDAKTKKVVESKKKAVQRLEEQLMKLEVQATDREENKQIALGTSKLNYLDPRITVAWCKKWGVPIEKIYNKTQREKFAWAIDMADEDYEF

B1: A12: rabbit derived anti-cNHL VL sdAb clone, SEQ. ID. 1 (antibody, listed as Oryctolagus cuniculus, V domains shown)
VL: ELVMTQTPSSVSAAVGGTATIDCQSTKSVYNNNALSWYQQKPGQPPKLLIYRASTLTSGVPSRFSGSGSGTQFTLTINDVQCDDAATYYCQGGISGSSDAPFGGGTEVVVK
B2: B12: rabbit derived anti-cNHL VL sdAb clone, SEQ. ID. 6 (antibody, listed as Oryctolagus cuniculus, V domains shown)
VL: ELVLTQTPASVEAAVGGTVTIKCQASQSIGSYLAWYQQKPGQPPKLLIYGASTLASGVPSRFSGSRSDTQFSLTISDLECADAATYYCQGYYYSDSSSYVNTFGGGTEVVVK
B3: C8: rabbit derived anti-cNHL VL sdAb clone, SEQ. ID. 2 (antibody, listed as Oryctolagus cuniculus, V domains shown)
VL: ELVMTQTPSSVSAAVGGTVTINCRASEDIESYLAWYQQKPGQPPKRLIYGASNLASGVSSRFKGSGSGTDFTLTISDLECADAATYYCQCIVGGSTYGNVFGGGTELEIL
B4: E1: rabbit derived anti-cNHL VL sdAb clone, SEQ. ID. 4 (antibody, listed as Oryctolagus cuniculus, V domains shown)
VL: ELVMTQTPSPVSAAVGGTVTIACQSSQSVYSGTLLSWYQQKPGQSPKLLIHEASTLASGVPSRFKGSGSGTQFTLTISDLECADAATYYCLGGFDDDADNAFGGGTELEIL
B5: E2: rabbit derived anti-cNHL VL sdAb clone, SEQ. ID. 5 (antibody, listed as Oryctolagus cuniculus, V domains shown)
VL: ELDLTQTPPSLSASVGGTVTINCQASESISNYLAWYQQKPGQPPKLLIYGASNLESGVPSRFRGSGSGTEFTLTISDMKAEDAATFYCQSGYYTAGDLTFGAGTNVEIK
B6: RG3: rabbit derived BBB targeting VL sdAb clone, SEQ. ID 44; ^99mTc(CO)3-labelled in Table 1 (antibody, listed as Oryctolagus cuniculus, V domains shown)
VL: ELVMTQTPSPVSAAMGGTVSISCQSSKSVANNNELSWYQQKPGQPPKLLIYEASKLASGVPSRFKGSGSGTQFTLTISDVQCDDAATYYCLGDYYSSSDNAFGGGTEVVVK
modifications: 99mTc(CO)3 radiolabel
B7: RG22: rabbit derived BBB targeting VL sdAb clone, SEQ. ID 44 to 48 series; ^99mTc(CO)3-labelled in Table 1 (antibody, listed as Oryctolagus cuniculus, V domains shown)
VL: ELVLTQTPASVEAAVGGTVTINCQASQSVYNNKNLAWYQQKPGQPPKLLIYRASTLASGVPSRFSGSGSGTQFTLTISGAQCDDAATYYCQGEFSCSSGDCIAFGGGTEVVVK
modifications: 99mTc(CO)3 label
B8: RG23: rabbit derived BBB targeting VL sdAb clone, SEQ. ID 44 to 48 series; ^99mTc(CO)3-labelled in Table 1 (antibody, listed as Oryctolagus cuniculus, V domains shown)
VL: ELVMTQTPASVSEPVGGTVTIKCQASQSIGNALAWYQQKPGQPPKLLIYGASNLESGVPSRFKGSGSGTEFTLTISDLECADAATYYCQSYYYSSSSSYGSYAFGGGTEVVVK
modifications: 99mTc(CO)3 label

system: CLBL-1 cell extracts; experiment: ELISA screening of anti-cNHL VL sdAb clones; type: binding, canine; conditions: clone supernatants, CLBL-1 extracts
Description: After the phage display selection, in order to express and select the best anti-cNHL VL sdAbs, phagemid DNA derived from the in vivo output selection was cloned into a PT7-PL vector and transformed into an E. coli strain BL21. Then, individual clones were auto induced, and the supernatant tested in ELISA assays against CLBL-1 and Jurkat cell extracts. To select the best lead candidates, three parameters were evaluated: binding against cNHL, expression yields, and unspecific binding. […] After selection, to characterize the selected clones, the 43 best lead candidates were analysed by sanger sequencing (FIG. 6B). To get further insights of the enriched sequences during the in vivo phage display selection, we performed next generation sequencing (NGS) of the biopanning repertoires. NGS allows massive sequence analysis of the panning population, enabling a genomic assessment of the library diversity and frequency of each clone. Two samples were sequenced: biopanning from the CLBL-1 tumour models and initial immune VL sdAb cNHL library (FIG. 7). Upon bioinformatic analysis of the NGS data, we were able to determine the diversity of each sample and identify the most represented clones. A total of 34880 sequences were obtained for the biopanning from the CLBL-1 tumours. The NHL library obtained a total of 48864 sequences. The number of singletons, consisting of the sequences with a single occurrence, varied between samples, ranging from 76.8% in the library, and 33.3% in the in vivo biopanning from the CLBL-1. Through the comparison of the sequence prevalence between the biopannings and the library, we were able to verify that the number of occurrences in each sequence was higher in the biopanning clones. […] By comparing ELISA data, sanger sequencing and NGS analysis, the six best clones (A12, C8, C5, E1, E2, and B12) were produced and purified. Due to its binding characteristics and production properties, C5 sdAb clone was chosen to be thoroughly characterized and used in the development of the proposed ADC.
To express and select anti-NHL-sdAbs, phagemid DNA encoding selected anti-cNHL sdAbs was cloned into PT7-PL (PT7-peptide leader) vector and transformed into E. coli strain BL21. Individual colonies were inoculated in 100 μl of Super Broth (SB) medium containing Overnight Express™ Autoinduction System (Novagen®) and 100 μg/ml of ampicillin and incubated overnight at 30° C. Next day, 40 μl of BugBuster (Roche) containing anti-protease cocktail-EDTA free inhibitors (Roche) were added and incubated for 30 min at 4° C. Then, plates were centrifuged at 1200 rpm and the supernatant was tested in ELISA assays. Three different conditions were assessed: binding to the sdAbs to the antigen, expression level and unspecific binding. After coating the wells with CLBL-1 cell extracts or Raji cell extracts for 1 h at 37° C., wells were blocked with 3% BSA in PBS. Then, wells were washed with PBS and clones were added and incubated for 1 h, at 37° C. Next, plates were washed and incubated with anti-HA HRP antibody (Roche). Finally, after 1 h incubation, plates were washed and ABTS (Roche) was added and optical density at 405 nm was measured at different time points. To evaluate the expression level, the same protocol was applied, excluding antigen coating.
For unspecific binding, antigen was replaced by 3% BSA. Rabbit sera and anti-CD20 antibody were used as positive controls. BL21 cell extracts were used as negative controls. In the end, the ten best individual clones were sequenced at Eurofins company. Sequence analysis was performed using the Vector Nti software (Invitrogen). The antibody frameworks, CDRs and the amino acid numbering and sequences followed the rules described by Kabat et al. (1991) Sequences of proteins of immunological interest. Bethesda, MD, U.S. Dept. of Health and Human Services, Public Health Service, National Institutes of Health. […]

Molecule | ELISA signal against NHL cells
B1 | best results
B2 | best results
B3 | best results
B4 | best results
B5 | best results

system: bEnd.3 cell monolayer; experiment: In vitro BEB model translocation of sdAbs (western blot); type: in vitro ADME, mouse; conditions: 15 μg sdAb at apex, 90 min, WB
Description: FIG. 16A 15 μg of each purified sdAb was added to the apex of the transwell and incubated for 90 min.
FIG. 16B Following incubation period, all volumes were collected from the apex and the base and analysed by WB with anti-HA antibody.
To determine the in vitro BEB translocation efficiency of the selected VL sdAb, 15 μg of each purified antibody was added to the apex of the transwell and incubated for 15 and 90 min. The incubation time and sdAb concentration were selected based on previous optimization assays (data not shown). Following incubation, the cells were washed once with PBS and three times with TB. Evaluation of the translocation efficiency of each VL sdAb was assessed by running […] of the recovered volume from the apex and the base on a 15% SDS-PAGE acrylamide gel followed by WB analysis with HRP-conjugated […] antibody at 1:3000 (Roche). As a positive control, 100 ng of each purified VL sdAb was used. The FC5 VHH was used as a positive control. The same procedure was performed to evaluate the BEB crossing properties of each purified rabbit serum, but the incubation was performed for 15 and 60 min and the detection was performed with goat-α anti-rabbit IgG-Fc specific HRP at 1:10,000. Chemiluminescence was detected using the Chemidoc XRS+System (Bio-rad).

Molecule | in vitro BEB translocation
B6 | increased in vitro BEB-crossing efficiency
B7 | increased in vitro BEB-crossing efficiency
B8 | increased in vitro BEB-crossing efficiency

target: T1, Human Topoisomerase I; experiment: DNA Topo I activity assay (Human Topoisomerase I Assay Kit); type: biochemical; conditions: 10 U Topo I, supercoiled DNA, agarose gel
Description: FIG. 11—Cytotoxic effects of C5-DAB-SN-38. To determine the effect of C5-DAB-SN-38 on CLBL-1 and Jurkat cells, a cell viability assay was performed using the WST-1 reagent. 6×10^4 cells were seeded and treated with increasing amounts of compound. After 48 h treatment, cell viability was assessed. […] B) On the other hand, ADC had no effect on Jurkat cells, proving the specificity of the ADC. C5 was used as control. Best-fit EC50 values of each formulation were calculated using GraphPad Prism software (version 9.2.0, San Diego, CA, USA) using the log (inhibitor) vs response (variable slope) function. D) Effects of C5-DAB-SN-38 on DNA TopoI activity. To evaluate the effects of C5-DAB-SN-38 on DNA Topo I, we evaluated its activity using the Human Topoisomerase I Assay Kit. After incubation of C5-DAB-SN-38 with 1× reaction buffer and 10 U of Topo I for 1 h at 37° C., the supercoiled DNA was added. To stop the reaction, stop loading buffer was added. DNA TopoI activity was visualized by 1% agarose gel electrophoresis […] with ethidium bromide. Relaxed DNA indicated TopoI activity while supercoiled DNA indicated an inhibition. […] Relaxed DNA and supercoiled DNA were used as positive/negative controls. C5 and SN-38 were also used as controls.
Topo I activity on VL-DAB-SN38 was determined using the Human Topoisomerase I Assay Kit (Topogen, CO, USA) according to the manufacturer's instructions. […]

Molecule | effect on DNA Topo I activity
CCc1c2c(nc3ccc(O)cc13)-c1cc3c(c(=O)n1C2)COC(=O)[C@]3(O)CC [SN-38, reference compound] | inhibited
